{"source": "patent US20030129688A1", "about": "(published 2003)", "key": {"[1]": {"molecular_target": "T1, ErbB-3 receptor-Ig fusion (human, UniProt P21860 20-643; P21860 20-636)", "test": "phage ELISA, competition with soluble ErbB-3-Ig; reference"}, "[2]": {"molecular_target": "T1, ErbB-3 receptor-Ig fusion", "test": "phage ELISA, competition with soluble ErbB-3-Ig"}, "[3]": {"molecular_target": "T2, ErbB-4 receptor-Ig fusion (human, UniProt Q15303 26-651; Q15303 26-640)", "T2 sequence (Q15303 other isoform, or with tags, fused parts or gaps)": "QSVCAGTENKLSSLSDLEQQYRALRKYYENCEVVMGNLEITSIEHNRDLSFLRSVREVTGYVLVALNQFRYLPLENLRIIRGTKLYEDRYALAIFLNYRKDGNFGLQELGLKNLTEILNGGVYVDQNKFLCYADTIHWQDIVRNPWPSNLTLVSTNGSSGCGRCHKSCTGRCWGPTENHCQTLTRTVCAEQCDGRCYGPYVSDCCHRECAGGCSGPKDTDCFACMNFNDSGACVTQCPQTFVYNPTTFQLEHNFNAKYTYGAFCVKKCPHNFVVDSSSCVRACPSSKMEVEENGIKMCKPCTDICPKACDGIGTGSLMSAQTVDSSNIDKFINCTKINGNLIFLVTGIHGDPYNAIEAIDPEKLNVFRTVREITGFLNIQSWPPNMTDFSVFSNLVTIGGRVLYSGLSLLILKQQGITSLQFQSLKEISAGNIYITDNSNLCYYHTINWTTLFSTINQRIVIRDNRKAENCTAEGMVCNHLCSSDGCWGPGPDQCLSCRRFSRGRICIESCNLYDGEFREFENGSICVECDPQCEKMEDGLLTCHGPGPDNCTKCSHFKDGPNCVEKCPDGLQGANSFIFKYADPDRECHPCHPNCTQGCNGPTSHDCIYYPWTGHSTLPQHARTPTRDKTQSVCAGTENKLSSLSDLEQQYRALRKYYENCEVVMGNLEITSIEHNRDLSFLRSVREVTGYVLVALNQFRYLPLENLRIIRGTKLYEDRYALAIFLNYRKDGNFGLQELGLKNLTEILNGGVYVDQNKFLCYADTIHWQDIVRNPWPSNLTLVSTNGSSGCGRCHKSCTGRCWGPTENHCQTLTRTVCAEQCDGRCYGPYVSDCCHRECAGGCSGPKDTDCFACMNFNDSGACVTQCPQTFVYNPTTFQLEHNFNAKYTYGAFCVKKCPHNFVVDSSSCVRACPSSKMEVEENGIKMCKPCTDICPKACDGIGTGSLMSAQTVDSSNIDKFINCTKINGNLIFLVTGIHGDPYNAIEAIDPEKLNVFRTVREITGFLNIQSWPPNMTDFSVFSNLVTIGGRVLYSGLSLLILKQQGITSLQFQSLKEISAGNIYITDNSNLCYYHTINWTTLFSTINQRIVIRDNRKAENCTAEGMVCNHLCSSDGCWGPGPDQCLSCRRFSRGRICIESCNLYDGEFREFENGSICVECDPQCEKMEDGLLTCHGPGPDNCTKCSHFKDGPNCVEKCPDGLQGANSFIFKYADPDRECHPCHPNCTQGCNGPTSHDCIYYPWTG", "test": "phage ELISA, competition with soluble ErbB-4-Ig"}, "[4]": {"molecular_target": "T2, ErbB-4 receptor-Ig fusion", "test": "phage ELISA, competition with soluble ErbB-4-Ig; reference"}, "[5]": {"molecular_target": "ErbB-2/3 receptor-Ig fusion (human, UniProt P04626 23-652; P04626 23-645; P21860 20-643; P04626 23-645)", "test": "phage ELISA, competition with soluble ErbB-2/3-Ig", "method": "(§1) Microtiter plates (Nunc Maxisorp™ 96-well plates, Inter Med, Denmark) for phage ELISA were prepared as follows. The wells were precoated overnight with 0.5 μg of rabbit anti-human IgG (Fc gamma fragment-specific) antibodies (Jackson Immunoresearch, West Grove, Pa.) in 100 μL 50 mM NaCO₃ (pH 9.6). The wells were blocked for 30 minutes (min) with 200 μL PBS containing 0.1% bovine serum albumin (BSA) and rinsed with wash buffer (PBS containing 0.05% Tween 20™). The wells were then coated with 0.1 μg ErbB-2/3-Ig in binding buffer (PBS, 0.1% BSA, 0.05% Tween 20™) for 1 h, and washed again.\n(§2) Following incubation for 2 h at room temperature, plates were washed extensively and treated with a 1:900 dilution of anti-M13 horseradish peroxidase conjugate (Pharmacia, Piscataway, N.J.) for 20 min. The amount of phage binding was determined by assaying horseradish peroxidase activity using o-phenylenediamine dihydrochloride) substrate solution (Sigma Chemical Company, St. Louis, Mo.)."}, "[6]": {"molecular_target": "ErbB-4 receptor-Ig fusion (human) (UniProt Q15303)", "sequence (Q15303 other isoform, or with tags, fused parts or gaps)": "as above", "test": "phage ELISA, competition with soluble ErbB-4-Ig"}, "[7]": {"molecular_target": "ErbB-3 receptor-Ig fusion (human) (UniProt P21860)", "test": "phage ELISA, competition with soluble ErbB-3-Ig"}, "[8]": {"molecular_target": "T1, ErbB-3 receptor-Ig fusion", "test": "phage ELISA, competition with soluble ErbB-3-Ig", "remark": "listed apart in the source", "method": "as §1, §2"}, "[9]": {"molecular_target": "ErbB-3 receptor-Ig fusion (human) (UniProt P21860)", "test": "125I-HRG-β1 177-244 displacement, ErbB-3-Ig on plate"}, "[10]": {"molecular_target": "ErbB-4 receptor-Ig fusion (human) (UniProt Q15303)", "test": "125I-HRG-β1 177-244 displacement, ErbB-4-Ig on plate"}}, "note": "Where two headings read alike, the source gives them in different places.", "data": [{"binder": "HRG8 (HRG-β1 177-228 fused via (GGGS)3 to pIII 323, displayed on phage) (ligand, human, not shown: large carriers, monovalent phage display; also called pHRG8-g3; wild-type HRG-β1 EGF-phage) SHLVKCAEKEKTFCVNGGECFMVKDLSNPSRYLCKCPNEFTGDRCQNYVMASGGGSGGGSGGGS", "values": [{"measurement": "EC50 (wt)/EC50 (mut)", "setting": "[1]", "value": 1, "unit": "ratio"}, {"measurement": "EC50", "setting": "[2]", "value": 135, "unit": "nM"}, {"measurement": "EC50", "setting": "[3]", "value": 163, "unit": "nM"}, {"measurement": "EC50 (wt)/EC50 (mut)", "setting": "[4]", "value": 1, "unit": "ratio"}, {"measurement": "EC50", "setting": "[5]", "value": 11, "unit": "nM"}]}, {"binder": "HRG2 (HRG-β1 177-244 fused to pIII 247, displayed on phage) (ligand, human, UniProt Q02297-6 177-244, looked up, not shown: large carriers, monovalent phage display; also called pHRG2-g3) SHLVKCAEKEKTFCVNGGECFMVKDLSNPSRYLCKCPNEFTGDRCQNYVMASFYKHLGIEFMEAEELY", "values": [{"measurement": "EC50", "setting": "[6]", "value": 19, "unit": "nM"}, {"measurement": "EC50", "setting": "[7]", "value": 13, "unit": "nM"}, {"measurement": "EC50", "setting": "[5]", "value": 6, "unit": "nM"}]}, {"binder": "HRG-β1 177-244 F216A displayed on phage (ligand, not shown: large carriers; small tags and cut ends, from pHRG2-g3; monovalent phage display) SHLVKCAEKEKTFCVNGGECFMVKDLSNPSRYLCKCPNEATGDRCQNYVMASFYKHLGIEFMEAEELY", "values": [{"measurement": "EC50", "setting": "[8]", "value": 500, "unit": "nM"}]}, {"binder": "recombinantly produced HRG-β1 177-244 (ligand, human, UniProt Q02297-6 177-244, looked up) SHLVKCAEKEKTFCVNGGECFMVKDLSNPSRYLCKCPNEFTGDRCQNYVMASFYKHLGIEFMEAEELY", "values": [{"measurement": "EC50", "setting": "[9]", "value": 9, "unit": "nM"}, {"measurement": "EC50", "setting": "[10]", "value": 14.8, "unit": "nM"}]}]}
